# Measured values: patent CN107417788A (INST PASTEUR SHANGHAI CAS, dated 2017)
# T1: 生物素化Zaire GP蛋白 (pIRES-Zaire GP-BirA-FLAG SP-) (Ebola virus (EBOV) subtype Zaire, UniProt Q05320 33-676)
# T1 construct: range 33-676; also called Zaire-GP-Biotin; Zaire-GP-BirA细胞裂解液
# T1 sequence: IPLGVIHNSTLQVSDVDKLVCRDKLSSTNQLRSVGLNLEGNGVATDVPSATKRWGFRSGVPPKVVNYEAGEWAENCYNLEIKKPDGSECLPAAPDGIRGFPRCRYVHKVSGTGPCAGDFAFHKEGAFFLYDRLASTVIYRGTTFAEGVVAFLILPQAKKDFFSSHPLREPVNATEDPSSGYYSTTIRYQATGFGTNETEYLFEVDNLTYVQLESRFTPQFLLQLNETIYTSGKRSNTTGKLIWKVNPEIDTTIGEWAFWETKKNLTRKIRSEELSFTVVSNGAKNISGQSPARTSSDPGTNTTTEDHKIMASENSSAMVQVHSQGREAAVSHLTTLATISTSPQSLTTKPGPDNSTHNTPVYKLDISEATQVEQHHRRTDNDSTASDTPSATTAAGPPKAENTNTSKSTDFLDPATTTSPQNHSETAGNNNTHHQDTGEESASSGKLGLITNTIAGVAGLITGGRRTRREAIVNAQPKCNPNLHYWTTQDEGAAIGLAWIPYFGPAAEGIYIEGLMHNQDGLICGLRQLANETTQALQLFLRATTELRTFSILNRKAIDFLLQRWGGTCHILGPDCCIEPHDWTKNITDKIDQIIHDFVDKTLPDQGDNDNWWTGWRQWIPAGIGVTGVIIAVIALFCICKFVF
# B1: S37-3 (antibody, V domains shown)
# VH: EVQLQQSGPELVKPGASVKISCKASGYSFTGYFMNWVKQSHGKSLEWIGRINPYNGDTFYNQKFKGKATLTVDKSSSTAHMELLSLTSEDSAVYYCGRGLRAFLDYWGQGTTLTVSS
# VL: DIVLTQSPATLSVTPGDRVSLSCRASQSISNYLHWYQQKSHESPRLLIKYASQSISGIPSRFSGSGSGTDFTLSINSVETEDFGMYFCQQSNSWPHTFGGGTKLEIK
# notes: also called 单克隆抗体S37-3; S37-3上清
# Target: T1, 生物素化Zaire GP蛋白 (pIRES-Zaire …)
# Assay: indirect ELISA, […] (1:300) […]
binder,measurement,value
B1,binding result,binds
